Reference: patent US20030158389A1 (Genentech, published 2003)

T1: FcγRIIa α subunit ECD-6His-GST fusion protein (UniProt P12318 34-217)
T1 construct: not shown: glutathione S transferase (GST)
T1 sequence: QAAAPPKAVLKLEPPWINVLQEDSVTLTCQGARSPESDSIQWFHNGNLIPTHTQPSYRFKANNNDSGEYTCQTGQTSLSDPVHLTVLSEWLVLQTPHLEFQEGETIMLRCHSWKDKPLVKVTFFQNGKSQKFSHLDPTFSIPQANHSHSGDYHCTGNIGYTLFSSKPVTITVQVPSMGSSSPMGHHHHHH

T2: FcγRIIb α subunit ECD-6His-GST fusion protein (UniProt P31994 43-217)
T2 construct: not shown: glutathione S transferase (GST)
T2 sequence: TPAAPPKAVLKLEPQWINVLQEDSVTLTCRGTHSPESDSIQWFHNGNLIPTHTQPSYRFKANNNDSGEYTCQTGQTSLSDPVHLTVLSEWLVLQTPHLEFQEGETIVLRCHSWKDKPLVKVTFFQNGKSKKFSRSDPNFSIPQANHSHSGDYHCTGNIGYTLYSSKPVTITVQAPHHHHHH


Columns and labels:
[1] = molecular target: T3, FcγRI α subunit-GST fusion (UniProt P12314 16-292); test: ELISA, monomeric IgG on coated FcγRI α subunit-GST
T3 construct: not shown: glutathione S transferase (GST)

[2] = molecular target: T4, FcγRIIIa α subunit ECD-6His-GST fusion protein (UniProt P08637 17-208); test: ELISA, E27:chimeric IgE:VEGF immune complex on coated receptor ECD-6His-GST
T4 construct: not shown: glutathione S transferase (GST)

[3] = molecular target: T1, FcγRIIa α subunit ECD-6His-GST fusion …; test: as above
[4] = molecular target: T2, FcγRIIb α subunit ECD-6His-GST fusion …; test: as above

T3 sequence (P12314 other isoform, or with tags, fused parts or gaps, form in doubt): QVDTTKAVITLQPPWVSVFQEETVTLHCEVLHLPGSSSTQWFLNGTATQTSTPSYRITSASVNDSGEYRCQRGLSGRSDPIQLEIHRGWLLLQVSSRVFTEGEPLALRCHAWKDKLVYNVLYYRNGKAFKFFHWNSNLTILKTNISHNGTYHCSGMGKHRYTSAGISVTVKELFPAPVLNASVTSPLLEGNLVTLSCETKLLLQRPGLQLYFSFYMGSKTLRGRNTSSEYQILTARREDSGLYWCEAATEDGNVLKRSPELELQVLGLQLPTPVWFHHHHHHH
T4 sequence (P08637 other isoform, or with tags, fused parts or gaps, form in doubt): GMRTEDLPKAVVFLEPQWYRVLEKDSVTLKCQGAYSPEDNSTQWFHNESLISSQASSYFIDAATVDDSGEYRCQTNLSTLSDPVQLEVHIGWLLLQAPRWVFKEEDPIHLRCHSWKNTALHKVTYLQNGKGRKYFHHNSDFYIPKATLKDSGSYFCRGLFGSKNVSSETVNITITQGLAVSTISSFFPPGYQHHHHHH

| Binder | binding as percentage of the wild type [1] [%] | binding as percentage of the wild type [2] [%] | binding as percentage of the wild type [3] [%] | binding as percentage of the wild type [4] [%] |
| --- | --- | --- | --- | --- |
| E27 anti-IgE antibody, wild type (humanized IgG1) (antibody, In the FcγRII and FcγRIII ELISAs it stood as an immune complex E27:chimeric IgE:VEGF (1:1:2); also called wt; recombinant anti-IgE E27) heavy: not shown light: DIQLTQSPSSLSASVGDRVTITCRASKPVDGEGDSYMNWYQQKPGKAPKLLIYAASYLESGVPSRFSGSGSGTDFTLTISSLQPEDFATYYCQQSHEDPYTFGQGTKVEIKRTVAAPSVFIFPPSDEQLKSGTASVVCLLNNFYPREAKVQWKVDNALQSGNSQESVTEQDSKDSTYSLSSTLTLSKADYEKHKVYACEVTHQGLSSPVTKSFNRGEC | 100 | 100 | 100 | 100 |
| E27 anti-IgE antibody mutant E318A (antibody, also called E318A (E27 background)) heavy: not shown light: DIQLTQSPSSLSASVGDRVTITCRASKPVDGEGDSYMNWYQQKPGKAPKLLIYAASYLESGVPSRFSGSGSGTDFTLTISSLQPEDFATYYCQQSHEDPYTFGQGTKVEIKRTVAAPSVFIFPPSDEQLKSGTASVVCLLNNFYPREAKVQWKVDNALQSGNSQESVTEQDSKDSTYSLSSTLTLSKADYEKHKVYACEVTHQGLSSPVTKSFNRGEC | 93 | 104 | 113 | 106 |
| E27 anti-IgE antibody mutant K320A (antibody, also called K320A (E27 background)) heavy: not shown light: DIQLTQSPSSLSASVGDRVTITCRASKPVDGEGDSYMNWYQQKPGKAPKLLIYAASYLESGVPSRFSGSGSGTDFTLTISSLQPEDFATYYCQQSHEDPYTFGQGTKVEIKRTVAAPSVFIFPPSDEQLKSGTASVVCLLNNFYPREAKVQWKVDNALQSGNSQESVTEQDSKDSTYSLSSTLTLSKADYEKHKVYACEVTHQGLSSPVTKSFNRGEC | 102 | 72 | 94 | 83 |
| E27 anti-IgE antibody mutant P329A (antibody, also called P329A (E27 background)) heavy: not shown light: DIQLTQSPSSLSASVGDRVTITCRASKPVDGEGDSYMNWYQQKPGKAPKLLIYAASYLESGVPSRFSGSGSGTDFTLTISSLQPEDFATYYCQQSHEDPYTFGQGTKVEIKRTVAAPSVFIFPPSDEQLKSGTASVVCLLNNFYPREAKVQWKVDNALQSGNSQESVTEQDSKDSTYSLSSTLTLSKADYEKHKVYACEVTHQGLSSPVTKSFNRGEC | 104 | 85 | 111 | 96 |

Results, then the binder that gave them:

| binding as percentage of the wild type [1] [%] | binding as percentage of the wild type [2] [%] | binding as percentage of the wild type [3] [%] | binding as percentage of the wild type [4] [%] | Binder |
| --- | --- | --- | --- | --- |
| 74 | 73 | 86 | 58 | E27 anti-IgE antibody mutant P331A (antibody, also called P331A (E27 background)) heavy: not shown light: DIQLTQSPSSLSASVGDRVTITCRASKPVDGEGDSYMNWYQQKPGKAPKLLIYAASYLESGVPSRFSGSGSGTDFTLTISSLQPEDFATYYCQQSHEDPYTFGQGTKVEIKRTVAAPSVFIFPPSDEQLKSGTASVVCLLNNFYPREAKVQWKVDNALQSGNSQESVTEQDSKDSTYSLSSTLTLSKADYEKHKVYACEVTHQGLSSPVTKSFNRGEC |
| 90 | 90 | 109 | 101 | E27 anti-IgE antibody mutant K322A (antibody, also called K322A (E27 background)) heavy: not shown light: DIQLTQSPSSLSASVGDRVTITCRASKPVDGEGDSYMNWYQQKPGKAPKLLIYAASYLESGVPSRFSGSGSGTDFTLTISSLQPEDFATYYCQQSHEDPYTFGQGTKVEIKRTVAAPSVFIFPPSDEQLKSGTASVVCLLNNFYPREAKVQWKVDNALQSGNSQESVTEQDSKDSTYSLSSTLTLSKADYEKHKVYACEVTHQGLSSPVTKSFNRGEC |
